Changes are numbered by the printed parent chain. Read-outs that look alike come from different tables or passages of the source.
Key:
[1] = target: T1, human TSLP recombinant protein (human, UniProt Q969D9 29-159, biotinylated in the blocking and cell-binding assays (sites not given)); assay: competition ELISA, biotin-human TSLP to coated human TSLPR-Fc
T1 construct: also called biotinylated human TSLP protein

[2] = target: T1, human TSLP recombinant protein; assay: SPR BIAcore T200, antibody captured on Protein A, human TSLP injected
Description: After each injection cycle, the Protein A chip surface was regenerated with regeneration buffer 10 mM glycine (pH 2.0) at a flow rate of 30 μL/min.
The association rate constant (ka) and dissociation rate constant (kd) and equilibrium dissociation constant KD were analyzed by fitting the resulting data to a Langmuir 1:1 kinetics theoretical model using BIAevaluation software.

[3] = target: T1, human TSLP recombinant protein; assay: cell-based or functional assay
[4] = target: T2, Cynomolgus macaques TSLP recombinant protein (Cynomolgus macaques, UniProt Q969D9 29-159 (human entry), limits assumed, biotinylated in the blocking assays (sites not given)); assay: ELISA on coated cynomolgus TSLP;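 on result: Read-out was TMB colorimetric signal measured as absorbance at 450 nm after 10 min development at 37 °C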
T2 construct: also called cyTSLP; biotinylated Cynomolgus macaques TSLP protein
T2 chain: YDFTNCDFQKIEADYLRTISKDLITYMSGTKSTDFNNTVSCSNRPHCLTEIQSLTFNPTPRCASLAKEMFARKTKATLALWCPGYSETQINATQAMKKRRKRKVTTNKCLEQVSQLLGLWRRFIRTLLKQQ

[5] = target: T2, Cynomolgus macaques TSLP recombinant …; assay: competition ELISA, biotin-cynomolgus TSLP to coated cynomolgus TSLPR-Fc
Description: Cynomolgus macaques TSLPR recombinant protein was coated onto a 96-well microtiter plate at 1 μg/mL in carbonate buffer overnight at 4° C. The plate was washed three times with PBS and blocked by adding 200 μL/well of PBS containing 2% skim milk for 1 hour. […] The 96-well plate was washed three times with PBS, and 100 μL of the incubated mixture was added to each well and incubated for 1 hour at room temperature. After washing with PBST and PBS three times, respectively, 100 μL of SA-HRP was added to each well and incubated at room temperature for 30 minutes in the dark. After washing with PBST and PBS three times, respectively, 100 μL of TMB substrate was added to well for color development at 37° C. for 10 minutes, the reaction was terminated with 50 μL of 2M sulfuric acid solution per well, and the absorbance was read at a wavelength of 450 nm.

[6] = target: T1, human TSLP recombinant protein; assay: cell-based or functional assay; remark: listed apart in the source
[7] = target: T1, human TSLP recombinant protein; assay: ELISA on coated human TSLP
Description: (§1) The plate was washed three times with PBS and blocked by adding 200 μL/well of PBS containing 2% skim milk for 1 hour. […] After washing with PBST and PBS three times, respectively, 100 μL of TMB substrate was added to each well for color development at 37° C. for 10 minutes, the reaction was terminated with 50 μL of 2M sulfuric acid solution per well, and the absorbance was read at a wavelength of 450 nm.

[8] = target: T2, Cynomolgus macaques TSLP recombinant …; assay: ELISA on coated cynomolgus TSLP
Description: as §1

[9] = target: T1, human TSLP recombinant protein; assay: ELISA, human TSLP coated at 1 ug/mL, anti-human IgG Fc-HRP, A450
Description: as §1

[10] = target: T2, Cynomolgus macaques TSLP recombinant …; assay: SPR BIAcore T200, antibody captured on Protein A, cynomolgus TSLP injected
Description: (§2) After each injection cycle, the Protein A chip surface was regenerated with regeneration buffer 10 mM glycine (pH 2.0) at a flow rate of 30 μL/min. The association rate constant (ka) and dissociation rate constant (kd) and equilibrium dissociation constant KD were analyzed by fitting the resulting data to a Langmuir 1:1 kinetics theoretical model using BIAevaluation software.

[11] = target: T1, human TSLP recombinant protein; assay: flow cytometry competition, biotin-human TSLP to Ba/F3-hTSLPR-IL7Rα cells
Description: Ba/F3-hTSLPR-IL7Rα cells were washed three times with PBS, centrifuged at 300 g for 3 minutes, and blocked with 3% BSA/PBS for 30 minutes. The cells were resuspended and added to a 96-well U-plate at 5×10⁴/well.

[12] = target: T2, Cynomolgus macaques TSLP recombinant …; assay: competition ELISA, biotin-cynomolgus TSLP to coated cynomolgus TSLPR-Fc
Description: Cynomolgus macaques TSLPR recombinant protein was coated onto a 96-well microtiter plate at 1 g/mL in carbonate buffer overnight at 4° C. The plate was washed three times with PBS and blocked by adding 200 μL/well of PBS containing 2% skim milk for 1 hour. […] The 96-well plate was washed three times with PBS, and 100 μL of the incubated mixture was added to each well and incubated for 1 hour at room temperature. After washing with PBST and PBS three times, respectively, 100 μL of SA-HRP was added to each well and incubated at room temperature for 30 minutes in the dark. After washing with PBST and PBS three times, respectively, 100 μL of TMB substrate was added to well for color development at 37° C. for 10 minutes, the reaction was terminated with 50 μL of 2M sulfuric acid solution per well, and the absorbance was read at a wavelength of 450 nm.

[13] = target: T1, human TSLP recombinant protein; assay: SPR BIAcore T200, antibody captured on Protein A, human TSLP injected; remark: listed apart in the source
Description: as §2

[14] = target: T1, human TSLP recombinant protein; assay: cell-based or functional assay; remark: listed apart in the source
[15] = target: T1, human TSLP recombinant protein; assay: ELISA on coated human TSLP; remark: listed apart in the source
Description: as §1

[16] = target: T1, human TSLP recombinant protein; assay: cell-based or functional assay; remark: listed apart in the source
[17] = target: T1, human TSLP recombinant protein; assay: competition ELISA, biotin-human TSLP to coated human TSLPR-Fc; remark: listed apart in the source
Description: Human TSLPR recombinant protein was coated onto a 96-well microtiter plate at 1 μg/mL in carbonate buffer overnight at 4° C. The plate was washed three times with PBS and blocked by adding 200 μL/well of PBS containing 2% skim milk for 1 hour. […] The 96-well plate was washed three times with PBS, and 100 μL of the incubated mixture was added to each well and incubated for 1 hour at room temperature. After washing with PBST and PBS three times, respectively, 100 μL of SA-HRP was added to each well and incubated at room temperature for 30 minutes in the dark. After washing with PBST and PBS three times, respectively, 100 μL of TMB substrate was added to well for color development at 37° C. for 10 minutes, the reaction was terminated with 50 μL of 2M sulfuric acid solution per well, and the absorbance was read at a wavelength of 450 nm.

B1: 71G4 chimeric antibody (antibody, V domains shown)
VH: QVQLQQSGAELVMPGASVKMSCKASGYTFTDYWMHWVKQRPGQGLEWIGTIDNSDSDTTYNQKFKGKVTLTVDESSSTAYMQLSSLTSEDSAVYYCARSVDGYLDYWGQGTTLTVSS
VL: EIQMTQSPASLSASVGETVTITCRTSENIYSYLAWYQQKQGKSPQLLVYFAKTLTDGVPSRLSGSGSGTQFSLKINSLQPEDFGSYYCQHHYGTPWTFGGGTKLEIK
IC50 [1]: 1520 pM
Kd [2]: 10 pM
koff [2]: 3.16e-05 s⁻¹
kon [2]: 3.15e+06 M⁻¹ s⁻¹
Inhibition IC50 of cell proliferation [3]: 12700 pM
EC50 [4]: 600 pM
IC50 [5]: 560 pM
Inhibition IC50 of STAT5 reporter gene [6]: 1670 pM
EC50 [7]: 320 pM

B2: 80D12 chimeric antibody (antibody, V domains shown)
VH: QVQLKQSGPQLVRPGASVKISCKASGYSFTSYWMHWVKQRPGQGLEWIGMIDPSDSETTLNQKFKDKATLTVDKSSTTAYMQLSSPTSEDSAVYYCARSLDGYYDYWGQGTTLTVSS
VL: B1 VL with E1D, I2V, T5I, L62F
IC50 [1]: 2440 pM
Kd [2]: 5.96 pM
koff [2]: 2.84e-05 s⁻¹
kon [2]: 4.77e+06 M⁻¹ s⁻¹
Inhibition IC50 of cell proliferation [3]: 44700 pM
EC50 [4]: 350 pM
IC50 [5]: 630 pM
Inhibition IC50 of STAT5 reporter gene [6]: 3840 pM
EC50 [7]: 210 pM

B3: 39G5-H8 chimeric antibody (antibody, V domains shown)
VH: B2 VH with K5L, T30I, M34I, M50I, E57D, T59S, M81I
VL: B1 VL with E1D, T25A, F50N, K52R, T55P, D56E, L62F, S85I, G93T
IC50 [1]: 3420 pM
Kd [2]: 9.5 pM
koff [2]: 4.6e-05 s⁻¹
kon [2]: 4.84e+06 M⁻¹ s⁻¹
Inhibition IC50 of cell proliferation [3]: 39100 pM
EC50 [4]: 540 pM
IC50 [5]: 1740 pM
Inhibition IC50 of STAT5 reporter gene [6]: 3330 pM
EC50 [7]: 150 pM

B4: Ab12 (antibody, V domains shown)
VH: QVQLVQSGAEVKKPGSSVKVSCKASGYTFTDYWMHWVRQAPGQGLEWMGTIDNSDSDTSLNQKFQGRVTITADESSSTAYMELSSLRSEDTAVYYCARSLDGYYDYWGQGTLVTVSS
VL: DIQMTQSPSSLSASVGDRVTITCRASENIYSYLAWYQQKPGKAPKLLIYNARTLPEGVPSRFSGSGSGTDFTLTISSLQPEDFATYYCQHHYTTPWTFGQGTKVEIK
notes: Humanized; also called h39G5VHv12/h39G5VKv1
binding result [8]: binds
binding result [9]: binds

B5: Ab22 (antibody, V domains shown)
VH: B4 VH with T28S, T30I, D31S, M34I, T50I, N53P, I70L, A72V, E74K, S77T
VL: B4 VL with A25T, N50F, R52K, P55T, E56D, T93G
notes: Humanized; also called h39G5VHv1/h71G4VKv1; h39G5VHv1/h7IG4VKv1 hIgG1
Kd [10]: 0.0421 pM
koff [10]: 6.7e-08 s⁻¹
kon [10]: 1.59e+06 M⁻¹ s⁻¹
IC50 [11]: 390 pM
IC50 [12]: 1000 pM
Kd [13]: 0.064 pM
koff [13]: 1.07e-07 s⁻¹
kon [13]: 1.68e+06 M⁻¹ s⁻¹
EC50 [8]: 770 pM
Inhibition of Cell Proliferation IC50 [14]: 2200 pM
EC50 [15]: 290 pM
STAT5 signal inhibition IC50 [16]: 170 pM
IC50 [17]: 1800 pM

B6: Ab23 (antibody, V domains shown)
VH: B4 VH with T28S, T30I, D31S, M34I, T50I, N53P, S76T
VL: B4 VL with A25T, N50F, R52K, P55T, E56D, T93G
notes: Humanized; also called h39G5VHv2/h71G4VKv1; h39G5VHv2/h71G4VKv1 hIgG1
Kd [10]: 0.00708 pM
koff [10]: 1.36e-08 s⁻¹
kon [10]: 1.93e+06 M⁻¹ s⁻¹
IC50 [11]: 330 pM
IC50 [12]: 1540 pM
Kd [13]: 0.0812 pM
koff [13]: 1.61e-07 s⁻¹
kon [13]: 1.98e+06 M⁻¹ s⁻¹
EC50 [8]: 830 pM
Inhibition of Cell Proliferation IC50 [14]: 1100 pM
EC50 [15]: 240 pM
STAT5 signal inhibition IC50 [16]: 170 pM
IC50 [17]: 1760 pM

B7: Ab14 (antibody, V domains shown)
VH: EVQLVQSGAEVKKPGESLKISCKASGYTFTDYWMHWVRQMPGKGLEWMGTIDNSDSDTSLNQSFQGHVTISADKSISTAYLQWSSLKASDTAMYYCARSLDGYYDYWGQGTLVTVSS
VL: B4 VL
notes: Humanized; also called h39G5VHv14/h39G5VKv1
binding result [8]: no binding
binding result [9]: binds

Reference: US20230029835A1 (KEYMED BIOSCIENCES, published 2023)
